Read-outs that look alike come from different tables or passages of the source.

Consider five molecules from article doi:10.1101/2023.08.11.553033.

Series [1] concerns the target T1, Pdr1p DBD (Saccharomyces cerevisiae, UniProt P12383 1-207).
T1 sequence: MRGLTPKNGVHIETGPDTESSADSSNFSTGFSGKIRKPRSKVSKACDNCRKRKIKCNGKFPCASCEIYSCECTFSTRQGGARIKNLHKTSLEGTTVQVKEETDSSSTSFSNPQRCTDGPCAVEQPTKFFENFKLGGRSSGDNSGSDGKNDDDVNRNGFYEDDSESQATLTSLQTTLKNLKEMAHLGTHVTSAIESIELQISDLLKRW
In words: competition fluorescence polarization. In general terms: Polarisation of emitted light reports the rotation of a fluorescent probe.

Series [2] deals with T1, Pdr1p DBD. In words: competition fluorescence polarization. The source holds these as a separate data set.
Series [3] concerns the target T2, Pdr3p DBD (Saccharomyces cerevisiae, UniProt P33200 1-184).
T2 sequence: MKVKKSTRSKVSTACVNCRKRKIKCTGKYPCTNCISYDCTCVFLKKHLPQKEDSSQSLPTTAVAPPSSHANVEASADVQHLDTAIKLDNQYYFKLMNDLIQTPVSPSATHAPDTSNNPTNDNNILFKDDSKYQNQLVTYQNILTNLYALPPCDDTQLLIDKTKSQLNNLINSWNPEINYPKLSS
In words: competition fluorescence polarization.

The target in series [4] is T1, Pdr1p DBD. In words: competition fluorescence polarization. The source holds these as a separate data set.
Series [5] deals with T2, Pdr3p DBD. In words: competition fluorescence polarization. The source holds these as a separate data set.
In series [6] the target is T1, Pdr1p DBD. In words: fluorescence polarization.
Series [7] has as its target T2, Pdr3p DBD. In words: fluorescence polarization.
The target in series [8] is T2, Pdr3p DBD. In words: competition fluorescence polarization. This is another data set of the same source.
Series [9] has as its target T1, Pdr1p DBD. In words: competition fluorescence polarization. The source holds these as a separate data set.

B1: PDR5_4 G4T G14A (paper numbering) (dsDNA)
DNA 1: AAACTTCCGTGGAAAACC
DNA 2: GGTTTTCCACGGAAGTTT
Take B1: the binding result in [1] is listed as “binds”.

B2: PBM half site TTCAAGAA (dsDNA)
DNA 1: AAAAGTTCAAGAACAACC
DNA 2: GGTTGTTCTTGAACTTTT
Regarding B2, the binding signal is 30 fold lower affinity than PBM half site in series [2] and 2.5 fold lower affinity than PBM half site in series [3].

B3: PBM half site TTCCGAAA (dsDNA)
DNA 1: AAAAGTTCCGAAACAACC
DNA 2: GGTTGTTTCGGAACTTTT
Take B3: the binding result in [4] and in series [5] was “binds” throughout.

B4: PBM half site 18mer (dsDNA)
DNA 1: AAAAGTTCCGGAACAACC
DNA 2: GGTTGTTCCGGAACTTTT
As usually defined, the Kd is the concentration at which binding is half-saturated. Low values mean higher affinity, high ones lower affinity. In the case of B4, the Kd in series [6] amounted to 229 nM; in [7] it was 118 nM.

B5: PDR5_4 C4A G4T G14A (paper numbering) (dsDNA)
DNA 1: AAAATTCCGTGGAAAACC
DNA 2: GGTTTTCCACGGAATTTT
As to B5, the binding result in [8] and in [9] was “binds” throughout.
